For this series, the system named is MS2 coat protein. The series can be described thus: apparent KD of MS2 coat protein; higher = weaker reporter binding. As to conditions: Eterna round: R107. Put shortly:
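Apparent KD was obtained for each design as the median of normalised binding-curve fits over its clusters. RNA switches transcribed on-chip from Illumina sequencing clusters were titrated with SNAP-549-labelled MS2 coat protein (twofold steps, 0.7 or 1.5 nM to 3 µM) in 100 mM Tris-HCl pH 7.5, 80 mM KCl, 4 mM MgCl2, without or with constant ligand.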

Setting [1] is: input ligand: theophylline 20 uM.
[2] abbreviates: input ligand: theophylline 2 mM.
Setting [3] is: input ligand: tryptophan 2.4 mM.

The record followed here is the supplement of paper PMC9170038.

In the case of “UAUCGUCAGACGGCCGCCACUAGAACAUGAGGAUCACCCAUGUACGGCCGCCCGGUGUGAUCCACUAGGACCGGGUCUGACGAAU [(Trp1)-(Ms2)-(T)'-(M)'-(Trp2)_Design23]”, the “apparent KD of MS2 coat protein” value came to 39.3 nM (input ligand: arginine 13.2 mM); 66.8 nM (input ligand: none); 77.9 nM under setting [1]; 95.7 nM under setting [2]; 53.8 nM under setting [3].
For “UAUCUUGCGGGCGCCCGCAAGGUUGCGGAUACCAGCGAGAUAAAUCGCCCUUGGCAGCCGAACAUGAGGAUCACCCAUGUCGGAC [Same State - Theophylline A Attempt #1 (HarryS)]”, the “apparent KD of MS2 coat protein” value is, setting by setting: (input ligand: arginine 13.2 mM) 7.94 nM; under setting [1], 11.8 nM; under setting [3], 9.87 nM.
Regarding “UAUGCACAUGAGGAUCACCCAUGUAUGGAAGGAGCGGUGAAUAAACCAGGUAGGUCGCCAUUGUGAGGGUCAUCUAUGUAAUCGU [Exclusion - Arginine A (Freestyle 4)]”, the “apparent KD of MS2 coat protein” value runs as follows: (input ligand: arginine 13.2 mM) 58.6 nM; (input ligand: none) 85.3 nM; under setting [1], 125 nM; under setting [2], 133 nM; under setting [3], 91.8 nM.
For “UAUUAUAACCGAAGGAGCGGGAAAGAUGAUUUUUAAUAUUAACAUGAGGAUCACCCAUGUACCCAGGUAGGUCGCGGAUAUUAUU [Default title]”, in that order: 23.8 nM, 19.5 nM, 23.4 nM, 20.7 nM and 19 nM.
Turning to “UAUUUUGUGAUGGAUACCAGCAGAGAAAACGUUUAUCCUAACAUGAGGAUCACCCAUGUAUGCCCUUGGCAGCUGUUGUGGGAUA [8.Q]”, the “apparent KD of MS2 coat protein” value by setting is: (input ligand: arginine 13.2 mM) 24.9 nM; under setting [1], 42 nM; under setting [3], 29.9 nM.
For “UCACAUGAGGAUCACCCAUGUACAGGCGAUACCAGCCGUACAUUGGGCCCUUGGCAGCGCACCGAGACCUUUUAAAGCACUUCGG [Er]” the same measures were 33.5 nM, 103 nM and 34.7 nM.
Regarding “UCACGACGCAACGUGAGAUAAUGAACAGAAGGAGCGAGGAGAGCCUCAGGUAGGUCGCUGACAUGAGGAUCACCCAUGUAUUACA [Same State Arginine A GF6]”, the “apparent KD of MS2 coat protein” value was found to be 63.8 nM (input ligand: arginine 13.2 mM); 82.8 nM (input ligand: none); 84.2 nM under setting [1]; 80 nM under setting [2]; 65.2 nM under setting [3].
For “UCAGUGCAAGGAAGGAGCGGGUACAUGAGGAUCACCCAUGUGCAAGUGGUGAGUGUUCGUGCCCAGGUAGGUCGCCUAGCCUGGU [XArg-B19]” the same measures were 36.4 nM, 192 nM, 122 nM, 348 nM and 54.5 nM.
Regarding “UCAUAAGUACCGGUCCUCAGAUCCUCAUGACGAGGACCGGUACGGCCGCCACUCGAAACAUGAGGAUCACCCAUGUAAUAAUAUU [Brourdmod11]”, the “apparent KD of MS2 coat protein” value came out at 19.5 nM (input ligand: arginine 13.2 mM), 28.5 nM under setting [1] and 27.3 nM under setting [2].
Turning to “UCAUGCAGGUCGGCCGCCACUACACACAUGAGGAUCACCCAUGUAGUUACUGGGUGAAGUGGCAGUAGGACCGGGACCUGCAUAC [Brourdmod09]”, the “apparent KD of MS2 coat protein” value by setting is: (input ligand: arginine 13.2 mM) 89.1 nM; (input ligand: none) 591 nM; under setting [1], 604 nM; under setting [2], 342 nM; under setting [3], 78 nM.
In the case of “UCAUUUGAGUGAGAUGUAAGGUAUCAUGAUACCAGUAGAUAAUUAUACCCUUGGCAGCAUAACAUGAGGAUCACCCAUGUACAUG [Ac]”, the “apparent KD of MS2 coat protein” value runs as follows: (input ligand: arginine 13.2 mM) 20.1 nM; under setting [1], 27 nM; under setting [3], 19.6 nM.
For “UCCUCCUCCGCAAGGAGGAGGAGUUGCGAUACCAGCACGGCAACGUGCCCUUGGCAGCGCACAUGAGGAUCACCCAUGUCAUGUU [#1 Exclusion - Theophylline A Attempt #10 (HarryS)]” the same measures were 15.5 nM, 29.5 nM and 18.8 nM.
With “UCGCAUUGCUCAGAUACCAGACAUGAGGAUCACCCAUGUACCAAGGUAACCGAAAGGCAUGUCCCUUGGCAGCUGAGCAAUGCGU [MAT - Exclusion Theophlline B - Mod of Eli - D14]”, the “apparent KD of MS2 coat protein” value by setting is: (input ligand: arginine 13.2 mM) 12.4 nM; under setting [1], 21.1 nM; under setting [3], 13.1 nM.
For “UCGCAUUGCUGCGAUACCAGACAUGAGGAUCACCCAUGUACCAAGGUACGAAAAUAACAUGUCCCUUGGCAGCGCAGCAAUGCGU [MAT - Exclusion Theophlline B - Mod of Eli - D5]”, in that order: 11.9 nM, 30.1 nM and 13.9 nM.
As for “UCGCCAUUGACGGCCGCCACUCAAUGGUCUUCUCUGAACAUAAUUAACAUGAGGAUCACCCAUGUGAGGACCGGGUCGGUUAGAC [theeternabot_exclusion_MS2_Trp_B_24]”, the “apparent KD of MS2 coat protein” value turned out to be 17.4 nM (input ligand: arginine 13.2 mM), 23.5 nM under setting [1] and 20.4 nM under setting [2].
Regarding “UCGCUCUGGGUGAAUUCCGGAGAUGUGGAAGGAGCGGACGAAAGUCCAGGUAGGUCGCCAUCGGACAUGAGGAUCACCCAUGUAC [Same State - Arginine A (Freestyle 22)]”, the “apparent KD of MS2 coat protein” value reads like this: (input ligand: arginine 13.2 mM) 55.6 nM; (input ligand: none) 122 nM; under setting [1], 99.8 nM; under setting [2], 100 nM; under setting [3], 89.9 nM.
For “UCGCUCUGGGUGAGUUCCGGAGAUGUGGAAGGAGCGCUCGAAAGAGCAGGUAGGUCGCCAACGGACAUGAGGAUCACCCAUGUAC [Same State - Arginine A (Freestyle 21)]” the same measures were 33.8 nM, 39.1 nM, 76.1 nM, 34.4 nM and 40.3 nM.
For “UCGGGCAGAGCGGCCGCCACUGUAAGGCGUGCGGAUGACGGAACAUGAGGAUCACCCAUGUUGUUUAGGACCGGGCUUGCGGCGA [nynullin]”, in that order: 22.5 nM, 15.8 nM, 27.2 nM, 11.2 nM and 16.7 nM.
For “UCGGGCAGAGCGGCCGCCACUGUUUGGCAUGCGGAUGAAGGAACAUGAGGAUCACCCAUGUAGAUUAGGACCGGGCUGGCGGAGA [jjhemullin]” the same measures were 17.3 nM, 20.1 nM, 19.2 nM, 39.4 nM and 36.5 nM.
On to “UCGGGCAUAGCGGCCGCCACUGUUUGGCGUGCGGAUGACGGAACAUGAGGAUCACCCAUGUUGUUUAGGACCGGGCUUGCGUCGU [zyzmullin]”, for which the “apparent KD of MS2 coat protein” value runs as follows: (input ligand: arginine 13.2 mM) 14 nM; under setting [1], 17.8 nM; under setting [2], 14.5 nM.
For “UCGGUGCUCUACAUGAGGAUCACCCAUGUCCGAGGACCGGUACGGCCGCCACUCGCAAUCAAACAGACGUGGGCCAACUUUGCGU [Tiribeesqu]”, in that order: 11 nM, 12.1 nM and 11 nM.
As for “UCGUGUAUAUCGGAUACCAGUGAAAUCGAUACAUGAGGAUCACCCAUGUGAGAGGAUGUACACCCUUGGCAGCUGUAUAUAUCUA”, the “apparent KD of MS2 coat protein” value reads like this: (input ligand: arginine 13.2 mM) 19.5 nM; under setting [1], 28.5 nM; under setting [3], 25.1 nM.
For “UCGUGUAUUUCGGAUACCAGUGAAAUCGAUACAUGAGGAUCACCCAUGUGAGAGGAUGUACACCCUUGGCAGCUGUCUGUAUCUG [cxezmullin]”, in that order: 14.6 nM, 20.2 nM and 15.5 nM.
Regarding “UCGUUUUAGUCGGCCGCCACUGUAUGCAUGUUUAACAUGAGGAUCACCCAUGUCCCGUUCUAUUUCAGGACCGGGACGUAAUCGA [JR_SSTryptoB_Sub008]”, the “apparent KD of MS2 coat protein” value amounted to 106 nM (input ligand: arginine 13.2 mM), 382 nM under setting [1] and 619 nM under setting [2].
Regarding “UCUAACAUGAGGAUCACCCAUGUGGGUUAUCGAGGACCGGUACGGCCGCCACUCGACCAGUAUAACUGGCUAGAACGUAUUUGAU [theeternabot_sameState_MS2_Trp_A_34]”, the “apparent KD of MS2 coat protein” value was 31.1 nM (input ligand: arginine 13.2 mM), 53.6 nM under setting [1] and 49.4 nM under setting [2].
“UCUCAAGGCCGCUCGGUGCUCCCUGGUGAUACCAGCCAUAUAUCCGGCCCUUGGCAGCACAUGAGGAUCACCCAUGUAGCAGGCG [Sorimaat]”: the “apparent KD of MS2 coat protein” value amounted to 18 nM (input ligand: arginine 13.2 mM); 24 nM (input ligand: none); 41.6 nM under setting [1]; 8.54 nM under setting [2]; 28.1 nM under setting [3].
As to “UCUUGAGUUUCGGAUACCAGUGUUGUCGAUACAUGAGGAUCACCCAUGUUAGAGGAUGUACACCCUUGGCAGCCGGCUGUGGCGG [zszmullin]”, the “apparent KD of MS2 coat protein” value by setting is: (input ligand: arginine 13.2 mM) 13.7 nM; under setting [1], 21.9 nM; under setting [3], 19 nM.
Take “UCUUGAGUUUCGGAUACCAGUGUUGUCGAUACAUGAGGAUCACCCAUGUUAGAGGAUGUACACCCUUGGCAGCCGGGUGUGGCGG [tftmullin]”: the “apparent KD of MS2 coat protein” value reads like this: (input ligand: arginine 13.2 mM) 12.2 nM; (input ligand: none) 14.5 nM; under setting [1], 14.7 nM; under setting [2], 12.6 nM; under setting [3], 15.5 nM.
For the sequence “UGACAUUGCUCAGAUACCAGACACGAGGAUCACCCGUGUGCCAACAAGUACAAAAUAAAUGUCCCUUGGCAGCUGAGCAAUGUCU [TheoBX 24 #MS2Left #AlternativeMS2 #Theo22]”, the “apparent KD of MS2 coat protein” value worked out at 11.9 nM (input ligand: arginine 13.2 mM); 12.2 nM (input ligand: none); 16 nM under setting [1]; 26.1 nM under setting [2]; 12.2 nM under setting [3].
As for “UGACAUUGCUCAGAUACCAGACAUGAGCAUCAGCCAUGUGCCAACAAGUACAAAAUAAAAGUCCCUUGGCAGCUGAGCAAUGUCU [TheoBX 21 #MS2Left #AlternativeMS2 #Theo2]”, the “apparent KD of MS2 coat protein” value is 11.3 nM (input ligand: arginine 13.2 mM); 9.88 nM (input ligand: none); 11.3 nM under setting [1]; 29.1 nM under setting [2]; 10.6 nM under setting [3].
Consider “UGACAUUGCUCAGAUACCAGACAUGAGCAUCAGCCAUGUGCCAACAAGUACAUAAUAAAUGUCCCUUGGCAGCUGAGCAAUGUCU [TheoBX 16 #MS2Left #Theo2 #AlternativeMS2]”, for which the “apparent KD of MS2 coat protein” value reads like this: (input ligand: arginine 13.2 mM) 14.3 nM; (input ligand: none) 13 nM; under setting [1], 20.5 nM; under setting [2], 149 nM; under setting [3], 12.7 nM.
As to “UGACAUUGCUCAGAUACCAGACAUGAGGAUCACCCAUGUACCAAGGUACGAAAAUAACAUGUCCCUUGGCAGCUGAGCAAUGUCU [First try 2 #MS2Left #Theo2]”, the “apparent KD of MS2 coat protein” value was found to be 16.7 nM (input ligand: arginine 13.2 mM), 27.6 nM under setting [1] and 12.4 nM under setting [3].
Take “UGACAUUGCUCAGAUACCAGACGUGAGCAUCAGCCAUGUGCCAACAAGUACAAAAUAAAUGUCCCUUGGCAGCUGAGCAAUGUCU [TheoBX 22 #MS2Left #AlternativeMS2 #Theo22]”: the “apparent KD of MS2 coat protein” value reads like this: (input ligand: arginine 13.2 mM) 18.5 nM; under setting [1], 23.4 nM; under setting [2], 175 nM; under setting [3], 16.9 nM.
Turning to “UGACAUUGCUCAGAUACCAGACGUGAGGAUCACCCACGUGCCAACAAGUACAAAAUAAAUGUCCCUUGGCAGCUGAGCAAUGUCU [TheoBX 26 #MS2Left #AlternativeMS2 #Theo22]”, the “apparent KD of MS2 coat protein” value was found to be 9.64 nM (input ligand: arginine 13.2 mM); 9.95 nM (input ligand: none); 12.7 nM under setting [1]; 14.1 nM under setting [2]; 10.9 nM under setting [3].
